Results from the supplement of paper PMC9732359.
± gives the uncertainty stated by the source.

Experiment: protein stability index of a GFP-peptide fusion (yeast GPS) (PSI 1-4); higher = more stable; sorted into four equal gates, so the index is relative within each strain
Procedure, shortened: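 Tiled 17-residue yeast protein peptides were fused downstream of GFP in a plasmid that also expresses Cherry, and the pooled library was carried in yeast. Mid-log cultures in leucine-free medium were sorted into four equal gates by GFP/Cherry fluorescence ratio, and plasmids from each gate were PCR-amplified and Illumina-sequenced, with reads assigned to strains by barcodes. The protein stability index for each peptide was each gate's read frequency times its gate number, summed.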

Sequence | protein stability index (doa10∆) | protein stability index (pdr5∆) | protein stability index (san1∆) | protein stability index (ubr1∆)
LGYKDTSVIQDLSEKIL [BRR2] | 2.77 ± 0.098 | 2.8 ± 0.098 | 2.81 ± 0.063 | 2.89 ± 0.065
GMMSTTGTARLNSMPNN [YJL039C/NUP192] |  | 2.99 ± 0.15 | 3.1 ± 0.089 | 3.22 ± 0.11
TIAKQVLNGQKIVVVRA [RPL16B] | 3.04 ± 0.19 | 2.9 ± 0.13 |  | 2.6 ± 0.14
VLYQSNATHDEDEFIVQ [SWP82] | 3.05 ± 0.041 | 3.14 ± 0.038 | 3.11 ± 0.039 | 3.151 ± 0.028
RSRYRREIDALKKQLHV [YIL149C/MLP2] | 3.24 ± 0.074 | 3.16 ± 0.05 | 3.23 ± 0.045 | 3.2 ± 0.036
GEKNFTSAHLKLKEMQK [SMC4] | 3.01 ± 0.14 | 3.35 ± 0.12 | 3.27 ± 0.078 | 3.14 ± 0.24
TSIANAFRRIMISEVPS [RPC40] | 1.71 ± 0.043 | 1.83 ± 0.046 | 2.45 ± 0.061 | 1.88 ± 0.042
EDLLECLDRCKEQYNRY [MTR3] | 3.18 ± 0.11 | 3.46 ± 0.08 | 3.24 ± 0.079 | 3.38 ± 0.085
YLHDNASKVLLKIFLYL [IRR1] | 1.92 ± 0.099 | 1.64 ± 0.075 | 1.42 ± 0.093 | 1.77 ± 0.053
QRQLLVQQQQQQQLRNQ [SNF5] | 2.2 ± 0.071 | 2.54 ± 0.11 | 2.44 ± 0.19 | 2.6 ± 0.1
VICSVTGPIEPKARQEL [RRP46] | 2.79 ± 0.081 | 3.06 ± 0.11 | 2.75 ± 0.051 | 2.88 ± 0.054
SEQKMKEDADLKRMEIL [SIR4] | 2.99 ± 0.066 | 3.34 ± 0.11 | 3.49 ± 0.059 | 3.28 ± 0.073
EEIVSNSSRFSDPMLQR [YCS4] | 3.07 ± 0.096 | 2.95 ± 0.082 | 3.28 ± 0.096 | 3.07 ± 0.056
GSKIRVMWGKVTRTHGN [RPL33A] | 3.09 ± 0.075 | 2.9 ± 0.076 | 2.76 ± 0.062 | 2.78 ± 0.054
SLRETNTTDPLGHTKAA [SIR2] | 2.77 ± 0.15 | 2.7 ± 0.15 | 2.85 ± 0.13 | 3.2 ± 0.082
ISYLQEVQCTSTPYLEI [PCI8] | 2.68 ± 0.16 |  | 1.7 ± 0.2 | 1.81 ± 0.22
QEASKQYTKDEQFYTKD [RPN2] | 3.41 ± 0.085 | 3.3 ± 0.086 | 3.19 ± 0.083 | 3.25 ± 0.056
IRKQPDDIINNDEPSHK [SIR2] | 2.91 ± 0.065 | 2.95 ± 0.039 | 2.94 ± 0.04 | 2.83 ± 0.039
IKDTANDNDITVKENES [UBP6] | 2.88 ± 0.1 | 2.45 ± 0.071 | 1.85 ± 0.075 | 1.41 ± 0.047
SSYDLLFNESFIMASVG [SRP72] | 3.18 ± 0.12 | 2.88 ± 0.15 | 2.76 ± 0.1 | 3.16 ± 0.059
RVRVTGGGHVSQVYAIR [RPS16A] | 2.61 ± 0.048 | 2.87 ± 0.045 | 2.93 ± 0.044 | 2.76 ± 0.031
HKTMSIVGVLQDDADPM [RPT2] | 1.6 ± 0.18 | 1.3 ± 0.2 | 1.58 ± 0.21 | 1.85 ± 0.13
IWLKDFIAVGQILPESQ [SIR3] |  | 2.37 ± 0.28 |  | 
NRPNTLDPALLRPGRID [RPT1] | 2.72 ± 0.14 | 3.01 ± 0.14 | 3.16 ± 0.064 | 2.61 ± 0.13
YIFFGPIYYQKLKHMVL [RET1] | 1.2 ± 0.062 | 1.38 ± 0.1 | 1.28 ± 0.12 | 1.39 ± 0.062
KFSDLKFILQILQILNL [YML103C/NUP188] | 3.05 ± 0.15 | 2.12 ± 0.29 | 3.48 ± 0.13 | 

Sequence | protein stability index (doa10∆) | protein stability index (pdr5∆) | protein stability index (san1∆) | protein stability index (ubr1∆)
LKSASKETAPVIDTLAA [RPL28] | 2.07 ± 0.072 | 2.41 ± 0.11 | 2.68 ± 0.073 | 2.12 ± 0.087
MARTKQTARKSTGGKAP [HHT1] | 3.31 ± 0.12 | 3.25 ± 0.11 | 3.04 ± 0.1 | 3.39 ± 0.092
RLTMGNVFTPEISSQIE [RRI2] | 2.7 ± 0.11 | 3.06 ± 0.079 | 2.95 ± 0.1 | 2.92 ± 0.09
ICIVGGYDDFQEEGSFE [FAS2] | 2.98 ± 0.16 | 2.5 ± 0.11 | 3.5 ± 0.1 | 
AFLSKVPEFFQTANEKH [SRP14] | 3.21 ± 0.12 | 3.21 ± 0.17 | 3.37 ± 0.11 | 3.09 ± 0.26
SFPILDQCVGQVGLNFE [YMR129W/POM152] | 3.07 ± 0.083 | 2.96 ± 0.11 | 3.1 ± 0.056 | 3.02 ± 0.07
EDAKLKTDLELLVERLK [RPN1] | 1.24 ± 0.074 | 1.19 ± 0.049 | 1.29 ± 0.14 | 1.51 ± 0.073
GGRMFAPTKTWRKWNVK [RPL4A] | 2.87 ± 0.12 | 2.88 ± 0.11 | 3.07 ± 0.065 | 2.16 ± 0.056
VPTLEAKRDYIISRLNA [FAS1] | 3.13 ± 0.087 | 3.35 ± 0.16 | 3.05 ± 0.076 | 3.25 ± 0.071
VLGNSRGVDAGKGNTFE [RPN14] | 2.73 ± 0.25 | 3.01 ± 0.17 | 3.66 ± 0.11 | 3.3 ± 0.12
LSNIEAQFLRSVVHPGE [RPO21] | 2.77 ± 0.1 | 2.73 ± 0.21 | 2.45 ± 0.1 | 2.97 ± 0.14
LIKFVDLSRNGRNGSNG [NUT1] | 3.08 ± 0.074 | 3.2 ± 0.099 | 3.15 ± 0.068 | 3.2 ± 0.069
EEEYDETHETNISNAKL [YAR002W/NUP60] | 3.35 ± 0.073 | 3.21 ± 0.09 | 3.44 ± 0.087 | 3.31 ± 0.065
TRNSNNLAIVELVRLLI [BRR2] | 2.56 ± 0.06 | 2.29 ± 0.049 | 2.53 ± 0.066 | 2.4 ± 0.049
ITSIPKPLTENCKKKKK [RMP1] | 2.84 ± 0.12 | 2.75 ± 0.12 | 2.05 ± 0.085 | 2.99 ± 0.095
SKASMQKEQNVNNRDSE [YCS4] | 2.78 ± 0.069 | 2.98 ± 0.067 | 2.05 ± 0.076 | 2.77 ± 0.042
VSNLMGRNIGHPIIQDK [RPB3] | 3.42 ± 0.079 | 3.43 ± 0.072 | 3.17 ± 0.053 | 3.22 ± 0.084
LRVEHIKHSKCRQEFLE [RPL21A] | 1.59 ± 0.21 | 2.43 ± 0.16 | 1.17 ± 0.18 | 1.31 ± 0.11
TYEAIDVPGRELKYELI [RPB2] | 3.01 ± 0.15 | 3.13 ± 0.098 | 3.1 ± 0.18 | 3.81 ± 0.16
AVPRDELGRSNYGMIAI [FAS1] | 2.97 ± 0.17 | 3.16 ± 0.15 | 3.28 ± 0.071 | 3.33 ± 0.22
DYIKDEQRHLKRELKRA [RPT3] | 2.25 ± 0.058 | 2.06 ± 0.056 | 1.98 ± 0.14 | 1.68 ± 0.037
HKLRESLPLIVFLRNRL [RPS4A] | 1.85 ± 0.052 | 1.57 ± 0.053 | 1.4 ± 0.1 | 1.43 ± 0.043
AVPLQIVSPQSNKPCMG [RPO21] | 1.72 ± 0.059 | 1.71 ± 0.038 | 2.03 ± 0.065 | 1.78 ± 0.035
RNSYPASFYSVNTEKKT [RPN3] | 3.4 ± 0.29 | 3.06 ± 0.13 | 2.82 ± 0.068 | 3.46 ± 0.14
SYLSETLISRISSLFTI [YML103C/NUP188] | 1.77 ± 0.062 | 1.89 ± 0.064 | 1.5 ± 0.074 | 2.05 ± 0.083
YIHRIGRTGRAANEGTA [PRP28] | 3.1 ± 0.11 | 3.29 ± 0.1 | 3.26 ± 0.053 | 3.29 ± 0.071
